The source of these data is paper doi:10.1101/2024.04.19.590371 (bioRxiv, 2024).

One test deals with T1, His+SUMO-atDjA2 (Arabidopsis thaliana, UniProt P42825 1-419).
T1 sequence (looked up): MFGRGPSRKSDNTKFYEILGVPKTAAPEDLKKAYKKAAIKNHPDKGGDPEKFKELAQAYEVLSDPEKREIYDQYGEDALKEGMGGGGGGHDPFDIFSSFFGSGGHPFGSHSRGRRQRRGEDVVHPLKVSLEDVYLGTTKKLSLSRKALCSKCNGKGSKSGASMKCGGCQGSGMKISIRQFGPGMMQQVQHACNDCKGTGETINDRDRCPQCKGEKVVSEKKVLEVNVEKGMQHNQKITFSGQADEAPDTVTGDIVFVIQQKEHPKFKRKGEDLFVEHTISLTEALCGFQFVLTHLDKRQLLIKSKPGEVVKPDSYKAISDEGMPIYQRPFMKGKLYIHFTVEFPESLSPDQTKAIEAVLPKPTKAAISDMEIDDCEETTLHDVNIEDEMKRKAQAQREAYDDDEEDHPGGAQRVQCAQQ
Kind of test: pull-down.

Another test deals with T2, His+SUMO-atDjA1 (Arabidopsis thaliana, UniProt Q94AW8 1-420).
T2 sequence (looked up): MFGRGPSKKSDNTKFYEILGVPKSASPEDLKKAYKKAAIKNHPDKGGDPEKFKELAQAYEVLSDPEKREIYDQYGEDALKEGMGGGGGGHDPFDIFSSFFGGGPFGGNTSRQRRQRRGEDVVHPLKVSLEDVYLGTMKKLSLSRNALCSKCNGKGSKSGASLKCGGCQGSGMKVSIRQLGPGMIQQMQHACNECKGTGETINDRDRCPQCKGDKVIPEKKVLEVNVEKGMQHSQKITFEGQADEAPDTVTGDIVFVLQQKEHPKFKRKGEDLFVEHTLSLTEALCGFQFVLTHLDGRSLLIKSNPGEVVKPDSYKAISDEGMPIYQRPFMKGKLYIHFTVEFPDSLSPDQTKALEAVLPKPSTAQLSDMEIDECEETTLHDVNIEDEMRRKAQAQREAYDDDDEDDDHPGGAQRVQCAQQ
Kind of test: pull-down.

B1: GST-OM64 (cytosolic domain, aa 488-586) (domain or fragment, Arabidopsis thaliana, UniProt F4KCL7 488-586, looked up)
chain: SEVMKEKGNAAYKGKQWNKAVNFYTEAIKLNGANATYYCNRAAAFLELCCFQQAEQDCTKAMLIDKKNVKAYLRRGTARESLVRYKEAAADFRHALVLE
B1: the binding result in the test with His+SUMO-atDjA2 is listed as “binds”.

B2: GST-Tom9.2 (cytosolic domain, aa 1-53) (domain or fragment, Arabidopsis thaliana, UniProt Q9FNC9 1-53, looked up)
chain: MAAKRIGAGKSGGGDPNILARISNSEIVSQGRRAAGDAVEVSKKLLRSTGKAA
On to B2, for which, in the test with His+SUMO-atDjA1, the binding result is “binds”.

B3: GST-Metaxin (cytosolic domain, aa 1-191) (domain or fragment, Arabidopsis thaliana, UniProt O64471 1-191, looked up)
chain: MEGDQETNVYTLVARKPSFDLPTACPNCLPAYIYLKLAQLPFELAFNSTFPDSDELPYFESDTYVAYNNEDGGVIEKLKKDGIVNLDSQLQSLSDYLSLKALIVSWLEEALTYEIWVGTEGISTSKIYYSDLPWVISKVLFYKQTYLAKNRLGITKENAEQREKQIYKRASEAYEALSTRLGEQKFLFEDR
For B3, the binding result with His+SUMO-atDjA1 and in the test with His+SUMO-atDjA2 was “binds” each time.
